T1: recombinant SCCA-1 with a polyhistidine tag (6x His), P29508
T1 chain: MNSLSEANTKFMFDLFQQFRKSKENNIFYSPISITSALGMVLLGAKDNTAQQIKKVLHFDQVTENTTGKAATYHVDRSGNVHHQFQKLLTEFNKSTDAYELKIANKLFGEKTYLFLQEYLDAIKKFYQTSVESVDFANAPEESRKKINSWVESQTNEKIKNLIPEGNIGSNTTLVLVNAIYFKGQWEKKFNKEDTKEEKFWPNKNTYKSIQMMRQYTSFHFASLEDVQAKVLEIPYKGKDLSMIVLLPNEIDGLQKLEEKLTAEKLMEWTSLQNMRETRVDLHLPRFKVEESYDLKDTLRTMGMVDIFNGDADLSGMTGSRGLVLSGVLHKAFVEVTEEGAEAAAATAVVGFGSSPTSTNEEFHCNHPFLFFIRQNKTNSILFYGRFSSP

B1: active recombinant phosphorylated JNK-1 (Cell Signaling) (protein)
chain: MSRSKRDNNFYSVEIGDSTFTVLKRYQNLKPIGSGAQGIVCAAYDAILERNVAIKKLSRPFQNQTHAKRAYRELVLMKCVNHKNIIGLLNVFTPQKSLEEFQDVYIVMELMDANLCQVIQMELDHERMSYLLYQMLCGIKHLHSAGIIHRDLKPSNIVVKSDCTLKILDFGLARTAGTSFMMTPYVVTRYYRAPEVILGMGYKENVDLWSVGCIMGEMVCHKILFPGRDYIDQWNKVIEQLGTPCPEFMKKLQPTVRTYVENRPKYAGYSFEKLFPDVLFPADSEHNKLKASQARDLLSKMLVIDASKRISVDEALQHPYINVWYDPSEAEAPPPKIPDKQLDEREHTIEEWKELIYKEVMDLEERTKNGVIRGQPSPLAQVQQ
B2: active recombinant phosphorylated JNK-2 (Cell Signaling) (protein)
chain: MSDSKCDSQFYSVQVADSTFTVLKRYQQLKPIGSGAQGIVCAAFDTVLGINVAVKKLSRPFQNQTHAKRAYRELVLLKCVNHKNIISLLNVFTPQKTLEEFQDVYLVMELMDANLCQVIHMELDHERMSYLLYQMLCGIKHLHSAGIIHRDLKPSNIVVKSDCTLKILDFGLARTACTNFMMTPYVVTRYYRAPEVILGMGYKENVDIWSVGCIMGELVKGCVIFQGTDHIDQWNKVIEQLGTPSAEFMKKLQPTVRNYVENRPKYPGIKFEELFPDWIFPSESERDKIKTSQARDLLSKMLVIDPDKRISVDEALRHPYITVWYDPAEAEAPPPQIYDAQLEEREHAIEEWKELIYKEVMDWEERSKNGVVKDQPSDAAVSSNATPSQSSSINDISSMSTEQTLASDTDSSLDASTGPLEGCR

Target: T1, recombinant SCCA-1 with a polyhistidine …

| Protein | amount of phosphorylated c-Jun (in vitro pull-down JNK kinase assay on c-Jun fused protein beads, western blot with anti-phosphorylated c-Jun antibody) |
| --- | --- |
| B1 | in the case of incubating SCCA-1 with active JNK-1, the amount of phosphorylated c-Jun decreased remarkably as compared with the control not containing SCCA-1 |
| B2 | in the case of incubating SCCA-1 with active JNK-2, there was no significant decrease in the amount of phosphorylated c-Jun observed as compared with the control |

Source: patent publication US20050215509
